Positions count from the first letter of the chain named. Names may count otherwise.
Columns and labels:
[1] = biological target: HIV-2 Env (parental virus of the chimeras) (HIV-2); assay: cell-based or functional assay
HIV-2 C1 chimera Env = HIV-2 C1 chimera Env (HIV-2 (HIV-1 MPER) chimera); assay: cell-based or functional assay
HIV-2 C4 chimera Env = HIV-2 C4 chimera Env (HIV-2 (HIV-1 MPER) chimera); assay: cell-based or functional assay
HIV-1 Du156.12 Env [2] = biological target: HIV-1 Du156.12 Env (HIV-1 Du156.12); assay: cell-based or functional assay
HIV-2 C3 chimera Env = HIV-2 C3 chimera Env (HIV-2 (HIV-1 MPER) chimera); assay: cell-based or functional assay
HIV-1 HxB2 Env [3] = biological target: T1, HIV-1 HxB2 Env (HIV-1 HxB2, UniProt P04578 33-856); assay: BN-PAGE mobility shift of HxB2 Env with Fab, relative shift
HIV-1 HxB2 Env [4] = biological target: T1, HIV-1 HxB2 Env; assay: cell-based or functional assay
HIV-1 Du156.12 Env [5] = biological target: HIV-1 Du156.12 Env (HIV-1 Du156.12); assay: cell-based or functional assay; remark: listed apart in the source
HIV-1 HxB2 Env [6] = biological target: T1, HIV-1 HxB2 Env; assay: cell-based or functional assay; remark: listed apart in the source
HIV-1 Du156.12 Env [7] = biological target: HIV-1 Du156.12 Env (HIV-1 Du156.12); assay: cell-based or functional assay; remark: listed apart in the source

B1: PGZL1 (antibody, V domains shown)
VH: EVQLVQSGGEVKRPGSSVTVSCKATGGTFSTLAFNWVRQAPGQGPEWMGGIVPLFSIVNYGQKFQGRLTIRADKSTTTVFLDLSGLTSADTATYYCAREGEGWFGKPLRAFEFWGQGTVITVSS
VL: DVVMTQSPGTLSLSPGERATLSCRASQSVSGGALAWYQQKPGQAPRLLIYDTSSRPTGVPGRFSGSGSGTDFSLTISRLEPEDFAVYYCQQYGTSQSTFGQGTRLEIK
Which “IC50 (µg/ml), neutralization of HIV-2” value [1] does the source give for B1 here?
Its value is greater than 10 µg/mL.

What about the “IC50 (µg/ml), neutralization of chimeric virus” value (from here on “IC50 (µg/ml) … of chimeric virus”) (HIV-2 C1 chimera Env) of the same binder?
The value was 0.98 µg/mL.

What about the “IC50 (µg/ml) … of chimeric virus” value (HIV-2 C4 chimera Env) of the same binder?
Its value is 2.38 µg/mL.

What about the “IC50 (µg/ml), neutralization of HIV-1 Du156.12” value (HIV-1 Du156.12 Env [2]) of the same binder?
Its value is 0.623 µg/mL.

And the “IC50 (µg/ml) … of chimeric virus” value (HIV-2 C3 chimera Env)?
Its value is greater than 10 µg/mL.

B2: PGZL1 Fab (Fab, V domains shown)
VH: B1 VH
VL: B1 VL
notes: also called Fab PGZL1
Does B2 bind (HIV-1 HxB2 Env [3])?
Result: binds

B3: PGZL1_F100A (antibody, V domains shown)
VH: B1 VH with E1Q, F104A
VL: B1 VL
For B3, which “decrease in neutralization against the parent antibody” value (shortened to “decrease in neutralization”) (HIV-1 HxB2 Env [4]) is on record?
The value was greater than 10 fold.

And the “decrease in neutralization” value (HIV-1 Du156.12 Env [5])?
The value was greater than 10 fold.

B4: PGZL1_W99A (antibody, V domains shown)
VH: B1 VH with E1Q, W103A
VL: B1 VL
Which results are given for B4?
decrease in neutralization against the parent antibody (HIV-1 HxB2 Env [4]): > 10 fold; decrease in neutralization against the parent antibody (HIV-1 Du156.12 Env [5]): > 10 fold

B5: H4K3_SFS28EPE (antibody, V domains shown)
VH: KVQLVQSGAELKKPWSSVRVSCKASGGEPESYAFNWVRQAPGQRLEWLGGIVPLVSSTNYAQRFRGRVTISADRSTSTVYLEMTGLTSADTAVYFCAREGEGWFGRPLRAFEFWGQGTLVTVST
VL: EIVLTQSPGTFALSPGERATLSCRASQSVSGGALAWYQQKAGQAPRLLIYDTSGRATGVPGRFSGSGSETDFSLTISRLEPEDFAVYYCQQYGTSQSTFGQGTRLETR
Which “Fold Increase (neutralization IC50 over H4K3), HxB2” value (“Fold Increase … HxB2” for short) (HIV-1 HxB2 Env [6]) does the source give for B5 here?
Its value is 16.4 fold.

What about the “IC50, neutralization of HxB2 pseudovirus” value (HIV-1 HxB2 Env [6]) of the same binder?
Its value is 1.62 µg/mL.

What about the “Fold Increase (neutralization IC50 over H4K3), Du156.12” value (shortened to “Fold Increase … Du156.12”) (HIV-1 Du156.12 Env [7]) of the same binder?
Its value is 26.3 fold.

What about the “IC50, neutralization of Du156.12 pseudovirus” value (“IC50 … of Du156.12 pseudovirus” below) (HIV-1 Du156.12 Env [7]) of the same binder?
The value was 2.89 µg/mL.

B6: H4K3_RS73PE (antibody, V domains shown)
VH: B5 VH with E28S, P29F, E30S, R74P, S75E
VL: B5 VL
Which “Fold Increase … HxB2” value (HIV-1 HxB2 Env [6]) does the source give for B6 here?
Its value is 3 fold.

What about the “IC50, neutralization of HxB2 pseudovirus” value (HIV-1 HxB2 Env [6]) of the same binder?
The value was 0.299 µg/mL.

And the “Fold Increase … Du156.12” value (HIV-1 Du156.12 Env [7])?
Its value is 7.4 fold.

What about the “IC50 … of Du156.12 pseudovirus” value (HIV-1 Du156.12 Env [7]) of the same binder?
Its value is 0.814 µg/mL.

B7: PGZL1.H4K3 (antibody, V domains shown)
VH: B5 VH with E28S, P29F, E30S
VL: B5 VL with D51G
For B7, which “IC50 (µg/ml), neutralization of HIV-2” value [1] is on record?
The value was greater than 10 µg/mL.

What about the “IC50 (µg/ml) … of chimeric virus” value (HIV-2 C4 chimera Env) of the same binder?
The value was 1.17 µg/mL.

And the “IC50 (µg/ml), neutralization of HIV-1 Du156.12” value (HIV-1 Du156.12 Env [2])?
The value was 0.27 µg/mL.

And the “IC50 (µg/ml) … of chimeric virus” value (HIV-2 C3 chimera Env)?
Its value is greater than 10 µg/mL.

What about the “IC50, neutralization of HxB2 pseudovirus” value (HIV-1 HxB2 Env [6]) of the same binder?
Its value is 0.099 µg/mL.

What about the “IC50 … of Du156.12 pseudovirus” value (HIV-1 Du156.12 Env [7]) of the same binder?
Its value is 0.11 µg/mL.

B8: H4K3_5M (antibody, V domains shown)
VH: B5 VH with R74P, S75E
VL: B5 VL
How did the “Fold Increase … HxB2” value (HIV-1 HxB2 Env [6]) turn out when B8 was run?
The value was 37.7 fold.

And the “IC50, neutralization of HxB2 pseudovirus” value (HIV-1 HxB2 Env [6])?
Its value is 3.72 µg/mL.

What about the “Fold Increase … Du156.12” value (HIV-1 Du156.12 Env [7]) of the same binder?
Its value is 84.5 fold.

And the “IC50 … of Du156.12 pseudovirus” value (HIV-1 Du156.12 Env [7])?
The value was 9.31 µg/mL.

B9: PGZL1_gVmDmJ F100A (antibody, V domains shown)
V domain 1: QVQLVQSGAEVKKPGSSVKVSCKASGGTFSSYAISWVRQAPGQGLEWMGGIIPIFGTANYAQKFQGRVTITADKSTSTAYMELSSLRSEDTAVYYCAREGEGWAGKPLRAFEFWGQGTVITVSS
V domain 2: not shown
B9 was tested. Which “decrease in neutralization” value (HIV-1 HxB2 Env [4]) did it give?
The value was greater than 10 fold.

What about the “decrease in neutralization” value (HIV-1 Du156.12 Env [5]) of the same binder?
The value was greater than 10 fold.

B10: PGZL1_gVgDgJ Fab (Fab, V domains shown)
VH: B9 V domain 1 with A104F, K106E, E112D, F113V
VL: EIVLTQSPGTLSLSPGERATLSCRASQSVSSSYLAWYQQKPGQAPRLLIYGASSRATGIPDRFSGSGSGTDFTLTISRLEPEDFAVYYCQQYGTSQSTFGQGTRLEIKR
Does B10 bind (HIV-1 HxB2 Env [3])?
Result: binds

B11: PGZL1_gVmDmJ_W99A (antibody, V domains shown)
V domain 1: B9 V domain 1 with W103A, A104F
V domain 2: not shown
With B11 as the binder, how does the “decrease in neutralization” value (HIV-1 HxB2 Env [4]) read?
Its value is greater than 10 fold.

And the “decrease in neutralization” value (HIV-1 Du156.12 Env [5])?
Its value is greater than 10 fold.
